# In paper doi:10.1101/2025.03.23.644798 (bioRxiv, 2025):
# B1: wild-type D-amino acid oxidase from Schizosaccharomyces pombe (enzyme, UniProt Q9Y7N4 1-348, looked up)
# chain: MTKENKPRDIVIVGAGVIGLTTAWILSDLGLAPRIKVIAKYTPEDRSVEYTSPWAGANFCSISATDDNALRWDKITYHRFAYLAKTRPEAGIRFADLRELWEYEPKHDKIRSWNTYVRDFKVIPEKDLPGECIYGHKATTFLINAPHYLNYMYKLLIEAGVEFEKKELSHIKETVEETPEASVVFNCTGLWASKLGGVEDPDVYPTRGHVVLVKAPHVTETRILNGKNSDTYIIPRPLNGGVICGGFMQPGNWDREIHPEDTLDILKRTSALMPELFHGKGPEGAEIIQECVGFRPSRKGGARVELDVVPGTSVPLVHDYGASGTGYQAGYGMALDSVMLALPKIKLA
# Biological target: the molecule itself
# Test: native gel or EMSA
protein,measurement,value
B1,binding result,binds
